Laboratory results taken from patent US20130296252A1 (University of Texas, published 2013).
Bridge positions count the residues as written; N and C are the ends. Ends that are not written are not given here.

B3: mouse MUC18 (melanoma cell adhesion molecule) (receptor, UniProt Q8R2Y2 24-648, looked up)
chain: VPGEEKQPVPTPDLVEAEVGSTALLKCGPSRASGNFSQVDWFLIHKERQILIFRVHQGKGQREPGEYEHRLSLQDSVATLALSHVTPHDERMFLCKSKRPRLQDHYVELQVFKAPEEPTIQANVVGIHVDRQELREVATCVGRNGYPIPQVLWYKNSLPLQEEENRVHIQSSQIVESSGLYTLKSVLSARLVKEDKDAQFYCELSYRLPSGNHMKESKEVTVPVFYPAEKVWVEVEPVGLLKEGDHVTIRCLTDGNPQPHFTINKKDPSTGEMEEESTDENGLLSLEPAEKHHSGLYQCQSLDLETTITLSSDPLELLVNYVSDVQVNPTAPEVQEGESLTLTCEAESNQDLEFEWLRDKTGQLLGKGPVLQLNNVRREAGGRYLCMASVPRVPGLNRTQLVSVGIFGSPWMALKERKVWVQENAVLNLSCEASGHPQPTISWNVNGSATEWNPDPQTVVSTLNVLVTPELLETGAECTASNSLGSNTTTIVLKLVTLTTLIPDSSQTTGLSTLTVSPHTRANSTSTEKKLPQPESKGVVIVAVIVCTLVLAVLGAALYFFYKKGKLPCGRSGKQEITLPPTRKSEFVVEVKSDKLPEEMALLQGSNGDKRAPGDQGEKYIDLRH
notes: whole, on cells; Present on B16 melanoma cells before and after co-culture with B-1 lymphocytes; In the immunocapture assay it was captured from cell membrane extracts by anti-MUC18 antibody; In Western blot and co-IP it came from cell membrane extracts; also called MCAM; native mouse MUC18

Assays:
[1] = target: B3; assay: phage binding (relative TU) to B16 melanoma cells post co-culture with B-1 lymphocytes
[2] = target: B3; assay: phage binding (relative TU) to B16 melanoma cells post versus pre co-culture with B-1 lymphocytes
[3] = target: T1, human MUC18 on human melanoma cell lines (human, UniProt P43121 24-646); assay: phage binding to a panel of 8 human melanoma cell lines
T1 construct: whole, on cells; also called MCAM; CD146
T1 sequence (looked up): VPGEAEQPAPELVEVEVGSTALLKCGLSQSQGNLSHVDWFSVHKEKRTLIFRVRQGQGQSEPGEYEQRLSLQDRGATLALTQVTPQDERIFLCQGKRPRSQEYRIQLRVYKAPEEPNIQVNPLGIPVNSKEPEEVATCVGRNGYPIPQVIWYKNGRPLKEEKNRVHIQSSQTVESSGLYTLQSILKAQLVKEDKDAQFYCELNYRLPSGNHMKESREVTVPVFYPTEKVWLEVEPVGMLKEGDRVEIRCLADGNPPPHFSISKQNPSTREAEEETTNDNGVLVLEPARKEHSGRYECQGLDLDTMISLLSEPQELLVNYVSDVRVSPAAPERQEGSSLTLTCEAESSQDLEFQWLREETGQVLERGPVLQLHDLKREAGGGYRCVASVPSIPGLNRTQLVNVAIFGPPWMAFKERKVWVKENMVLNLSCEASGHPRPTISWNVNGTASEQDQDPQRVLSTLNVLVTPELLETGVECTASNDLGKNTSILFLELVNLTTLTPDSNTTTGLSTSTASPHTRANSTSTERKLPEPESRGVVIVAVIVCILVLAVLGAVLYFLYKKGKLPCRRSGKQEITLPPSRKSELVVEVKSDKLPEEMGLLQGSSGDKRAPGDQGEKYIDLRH

[4] = target: B3; assay: phage binding to B16 melanoma cells post versus pre co-culture with B-1 lymphocytes
[5] = target: B3; assay: alanine-scanning phage binding to melanoma cells
[6] = target: the molecule itself; assay: conclusion drawn from phage binding, immunocapture, antibody inhibition and shRNA experiments

B1: CLFMRLAWC-phage (phage displaying the cyclic peptide CLFMRLAWC) (peptide)
peptide: CLFMRLAWC
modifications: disulfide 1-9 (inferred); also: displayed on phage
notes: also called phage clone displaying the peptide motif Arg-Met-Phe-Leu
fold increase in phage binding relative to control insertless phage [1]: ~20 fold | fold increase in phage binding relative to melanoma cells without co-culture with B-1 lymphocytes [2]: ~12 fold

B2: H111-S120 phage (phage clone displaying the mouse MUC18-derived peptide HDERMFLCKS, residues H111-S120 of MUC18) (peptide)
peptide: HDERMFLCKS
notes: also called MUC18-derived phage; MUC18-derived (H111-S120) phage
binding result [3]: binds | fold increase in phage binding relative to baseline binding to melanoma cells pre co-culture with B-1 lymphocytes [4]: 2.5 fold

HDERMFLAKS (Numbering counts on mouse MUC18) [H111-S120 phage with Cys118 mutated (alanine scanning)]
binding result [5]: no binding

HDERMFLCKA (Numbering counts on mouse MUC18) [H111-S120 phage with Ser120 mutated (alanine scanning)]
binding result [5]: no binding

HDEAMFLCKS (Numbering counts on mouse MUC18) [H111-S120 phage with Arg114 mutated (alanine scanning)]
binding result [5]: no binding

HDERMFLCAS (Numbering counts on mouse MUC18) [H111-S120 phage with Lys119 mutated (alanine scanning)]
binding result [5]: no binding

B3
binding result [6]: binds
